# B1: RANKL: RANK pathway activator, ETP-derived signal (protein, UniProt O14788 140-317, looked up)
# Tumor necrosis factor ligand …: IRAEKAMVDGSWLDLAKRSKLEAQPFAHLTINATDIPSGSHKVSLSSWYHDRGWAKISNMTFSNGKLIVNQDGFYYLYANICFRHHETSGDLATEYLQLMVYVTKTSIKIPSSHTLMKGGSTKYWSGNSEFHFYSINVGGFFKLRSGEEISIEVSNPSLLDPDQDATYFGAFKVRDID
# B2: CD40L: CD40 pathway activator, ETP-derived signal (protein, UniProt P29965 113-261, looked up)
# CD40 ligand, soluble form: MQKGDQNPQIAAHVISEASSKTTSVLQWAEKGYYTMSNNLVTLENGKQLTVKRQGLYYIYAQVTFCSNREASSQAPFIASLCLKSPGRFERILLRAANTHSSAKPCGQQSIHLGGVFELQPGASVFVNVTDPSQVSHGTGFTSFGLLKL
# What was measured:
# [1] = test system: iPSCs; assay: Influence of TGF-β signaling on TEP induction from iPSCs, flow cytometry and qPCR on day 14 (Example 2); format: cell-based; details: TGF-β signaling modulation during AFE stage (days 5-6) and VPE stage (days 7-8); flow cytometry and qPCR day 14
# Experimental: In another exemplary method, the influence of TGF-β signaling during generation of TEPs in two different stages was assessed. FIG. 4A is a schematic illustrating the timelines and culture conditions for the nine protocols performed in the present exemplary method. FIG. 2 provides a chart of agents, modulators, additives, and base mediums used in this and other exemplary methods herein.
# For all nine exemplary experimental conditions, on Day 1, iPSCs were plated for differentiation in mTeSR+ supplemented with ROCKi according to the method disclosed above. […]
# The 9 protocols testing the effect of TGF-β inhibition (Ly), omission, or activation (T) on TEP induction were tested and analyzed by flow cytometry and qPCR on day 14. FIG. 4B illustrates flow plot quantification of CD205^+EPCAM^+ cells from each differentiation protocol and FIGS. 4C-4E illustrate a qPCR analysis of HOXA3, KRT8, and FOXN1 gene expression in the cells from each differentiation protocol.
# During the AFE stage (days 5-6) the influence of: 1) inhibition of TGF-β signaling (Ly—conditions […], 2, and 3); 2) no modulation of TGF-β signaling (conditions 4, 5, and 6); and 3) activation of TGF-β signaling (T—conditions 7, 8, and 9) was assessed. […]
# [2] = test system: iPSC-derived TEP; assay: RANKL, CD40L and NOTCH agonists added in stage 4 or 5 of differentiation, flow cytometry and qPCR (Example 5); format: cell-based
# Excerpt: FIG. 7 illustrates an exemplary experimental set-up in accordance with certain embodiments of the present disclosure. This experimental set-up for production of add RANKL, CD40L, and NOTCH agonists in different combinations in stage 4 or 5 of differentiation of the progenitor cells.
# FIGS. 8A-8B illustrate additional stimulants used to enhance thymic cell production having improved marker representation, 8A and […] illustrate percent representative marker outcome under the varying conditions in accordance with certain embodiments of the present disclosure.
# FIGS. 9A-9B illustrate exemplary results from qPCR detection of representative markers FOXN1 and MHC-II (e.g., HLA-DR) protein expression corroborated by gene expression under control and experimental conditions in accordance with certain embodiments of the present disclosure.
molecule,measurement,setting,value
"T: TGF-β activation (T), 1 ng/mL TGF-β","expression of TEP/TEC markers CD205 and EPCAM, VPE marker HOXA3, TEP markers KRT8 and FOXN1",[1],no influence
B1,production of FOXN1+EPCAM+ cells,[2],did not enhance production
B2,production of FOXN1+EPCAM+ cells,[2],did not enhance production

# Source: patent publication US20250382580A1, “COMPOSITIONS AND METHODS FOR ACCELERATED PRODUCTION OF THYMIC CELLS FROM PLURIPOTENT STEM CELLS” (The Regents of the University of Colorado, a body Corporate, priority 2022, published 2025)
